B1: Death-inducer obliterator 1, residues 263 to 321; numbered along this chain, Q9BTC0 (parent)
chain: GYDPNALYCICRQPHNNRFMICCDRCEEWFHGDCVGISEARGRLLERNGEDYICPNCTI

Variants of: B1
Experiment: abundance fitness (aPCA) (normalised: wild type 0, dead -1); higher = more abundant; growth selection in yeast, the domain comes from the species named
Conditions: Homo sapiens

Abundance fitness, by site and new letter:
C23: R -0.792 | V -1.08 | W -0.942 | T -0.918 | P -0.296 | Y -1.17 | D -0.532 | K -0.408 | L -1.03 | S -0.594 | M -1.26 | E -0.966 | H -1 | Q -0.821 | G -0.864
N16: H 0.108 | W -0.072 | V -0.045 | M 0.065 | I -0.109 | T 0.058 | E 0.072 | L -0.064 | F -0.184 | P -0.218 | K -0.019 | Y -0.399 | D -0.049 | Q 0.027 | C -0.211 | G 0.152 | S -0.119
E28: F -0.028 | A -0.153 | P -0.742 | V 0.015 | N -0.231 | Y -0.122 | S -0.106 | L -0.055 | M -0.056 | W -0.019 | T 0.065 | Q -0.198 | D 0.125 | I -0.235 | C -0.032 | K 0.045 | H -0.075
Q13: Y -0.161 | E 0.072 | F -0.159 | D 0.02 | K -0.054 | L -0.089 | R -0.085 | G -0.233 | P -0.692 | I -0.111 | A 0.183 | N -0.061 | T 0.105 | S -0.136 | H -0.159 | M 0.149 | V -0.068
F19: A -0.182 | W -0.016 | K -0.166 | Y 0.058 | I -0.028 | L -0.016 | G -0.224 | N -0.341 | Q 0.048 | S -0.143 | H 0.062 | M -0.265 | R -0.145 | P 0.088 | V -0.166 | E -0.291
F30: N -0.013 | M 0.013 | D -0.749 | Q -0.471 | Y -0.041 | P -0.711 | C -0.08 | S -0.266 | G -0.269 | T -0.38 | K -0.349 | A -0.283 | L -0.006 | H 0.004 | I -0.289 | E -0.954 | V -0.327 | R -0.306 | W -0.325
P14: M 0.004 | K 0.201 | W -0.496 | S 0.035 | N -0.003 | T 0.031 | A 0.006 | D -0.284 | G 0.018 | L 0.022 | F -0.084 | Q 0.079 | E 0.141 | H -0.04 | V 0.07 | Y 0.111 | I -0.028
C26: M -0.926 | Q -0.985 | E -0.632 | W -0.416 | I -0.578 | R -1.02 | H -0.672 | Y -0.794 | P -0.599 | L -1.03 | A -0.411 | K -0.863 | G -0.72 | F -1.06 | T -0.782 | D -0.808
E27: C -0.237 | L -0.107 | K 0.237 | I -0.158 | V -0.193 | R -0.071 | T -0.007 | P -0.004 | D 0.012 | S -0.033 | W -0.09 | Y 0.015 | Q -0.066 | G -0.074
D24: M 0.073 | G 0.166 | T -0.032 | S -0.092 | N 0.196 | E 0.026 | Y -0.073 | R 0.138 | C 0.048 | K 0.192 | V 0.258 | P 0.082 | L -0.176 | W -0.227 | A 0.139 | I -0.124
H15: S 0.164 | Y -0.025 | V 0.076 | N 0.051 | P -0.126 | E 0.029 | F -0.414 | L 0.058 | C 0.018 | A -0.088 | W -0.037 | Q -0.148 | I -0.039 | G 0.017 | K -0.121 | M 0.138 | D 0.073
C22: V 0.269 | K 0.058 | S 0.023 | R 0.11 | F 0.137 | E 0.023 | P 0.02 | I 0.07 | A 0.116 | N 0.029 | T 0.185 | H 0.056 | W 0.08 | M 0.102 | Q 0.075 | G 0.073 | Y 0.12
R18: P -0.34 | N -0.168 | V 0.03 | H 0.112 | Y 0.011 | Q 0.042 | C -0.047 | I -0.215 | S 0.104 | G 0.105 | F -0.24 | A -0.073 | E -0.023 | W -0.16 | M 0.139 | K 0.009 | D -0.167
N17: M -0.043 | A -0.03 | W -0.317 | D -0.148 | Q 0.181 | S -0.111 | G 0.032 | Y -0.086 | L -0.05 | V -0.374 | P -0.179 | T -0.07 | I -0.142 | H 0.008 | K 0.023 | C -0.117 | F -0.182
M20: S 0.002 | V -0.077 | A -0.343 | F -0.216 | Y -0.304 | G -0.023 | E -0.403 | P -0.519 | C -0.209 | T 0.053 | I 0.045 | W -0.323 | R -0.07 | L -0.037 | D -0.559 | Q -0.077
I10: W -0.169 | V -0.116 | Y -0.449
W29: S 0.17 | T 0.242 | R 0.173 | Y 0.064 | I 0.225 | C 0.045 | V 0.252 | N 0.224 | E 0.277 | M 0.176 | K 0.2 | H -0.02 | A 0.161 | G -0.02 | D 0.025 | L 0.215 | P 0.05
C11: F -0.724 | N -0.708 | P -0.999 | I -0.785 | L -0.861 | G -1.15 | E -0.622 | T -0.747 | M -0.71 | Q -0.609 | D -0.381 | S -0.92 | R -0.861 | W -0.953
R12: H 0.019 | Y -0.296 | W -0.284 | C -0.216 | P -0.463 | V -0.36 | A -0.14 | Q -0.186 | I -0.48 | L -0.11 | D -0.101 | M -0.305 | E -0.04 | T -0.105 | K 0.148 | F -0.207 | G 0.184
H31: A -0.636 | C -0.282
R25: I -0.197 | C -0.191 | Q 0.124 | L -0.057 | T 0.039 | N 0.101 | D -0.027 | S -0.019 | A 0.125 | E 0.163 | M -0.023 | V 0.063 | W -0.261 | K 0.118 | G -0.085 | F -0.068 | H -0.032 | P -0.052
I21: Q -0.164 | L -0.051 | E -0.494 | T -0.177 | W -0.582 | K -0.04 | M -0.104 | R -0.156 | H -0.4 | Y 0.036 | F -0.243 | V 0.132 | G -0.575 | A -0.144 | D -0.692

Source: the Human Domainome abundance scans (Beltran et al. 2025)
